{
  "source": "patent US10849992B1",
  "about": "“Methods of screening for sortilin binding antagonists” (ALECTOR LLC, priority 2015, dated 2020)",
  "molecules": {"B1": {"name": "biotinylated PGRN peptide (peptide)", "peptide": "Biotin-TKCLRREAPRWDAPLRDPALRQLL", "notes": "Detected through streptavidin-Tb in formats #3, #6 and #10; also called 24 amino acid-sized C-terminal peptide of PGRN; biotinylated peptide"}, "B2": {"name": "biotinylated mouse PGRN (ligand, UniProt P28798 18-589, looked up)", "chain": "TQCPDGQFCPVACCLDQGGANYSCCNPLLDTWPRITSHHLDGSCQTHGHCPAGYSCLLTVSGTSSCCPFSKGVSCGDGYHCCPQGFHCSADGKSCFQMSDNPLGAVQCPGSQFECPDSATCCIMVDGSWGCCPMPQASCCEDRVHCCPHGASCDLVHTRCVSPTGTHTLLKKFPAQKTNRAVSLPFSVVCPDAKTQCPDDSTCCELPTGKYGCCPMPNAICCSDHLHCCPQDTVCDLIQSKCLSKNYTTDLLTKLPGYPVKEVKCDMEVSCPEGYTCCRLNTGAWGCCPFAKAVCCEDHIHCCPAGFQCHTEKGTCEMGILQVPWMKKVIAPLRLPDPQILKSDTPCDDFTRCPTNNTCCKLNSGDWGCCPIPEAVCCSDNQHCCPQGFTCLAQGYCQKGDTMVAGLEKIPARQTTPLQIGDIGCDQHTSCPVGQTCCPSLKGSWACCQLPHAVCCEDRQHCCPAGYTCNVKARTCEKDVDFIQPPVLLTLGPKVGNVECGEGHFCHDNQTCCKDSAGVWACCPYLKGVCCRDGRHCCPGGFHCSARGTKCLRKKIPRWDMFLRDPVPRPLL", "modifications": "biotinylated (sites not given)"}, "B3": {"name": "mouse PGRN: mouse PGRN protein, biotinylated, tested in the FACS binding assay (protein)", "chain": "B2 chain"}, "B4": {"name": "sortilin pro-domain peptide (peptide, UniProt Q99523 34-77, looked up)", "peptide": "QDRLDAPPPPAAPLPRWSGPIGVSWGLRAAAAGGAFPRGGRWRR", "notes": "domain: pro-domain; also called Sortilin1 pro-domain peptide; sortilin pro-peptide"}, "B5": {"name": "non-biotinylated PGRN peptide (peptide)", "peptide": "TKCLRREAPRWDAPLRDPALRQLL", "notes": "also called unlabeled PGRN peptide; C-terminal peptide of PGRN"}},
  "key": {"[1]": {"target": "T1, sortilin protein with a C-terminal 6×His-tag (Homo sapiens (Human), UniProt Q99523 78-755, directly conjugated with d2 in assay format #3 (site not stated); unlabeled and detected with d2-labeled 1C12 in assay format #10)", "T1 construct": "Soluble sortilin of the HTRF assays; also called sortilin-d2; Tb-conjugated sortilin protein", "T1 sequence": "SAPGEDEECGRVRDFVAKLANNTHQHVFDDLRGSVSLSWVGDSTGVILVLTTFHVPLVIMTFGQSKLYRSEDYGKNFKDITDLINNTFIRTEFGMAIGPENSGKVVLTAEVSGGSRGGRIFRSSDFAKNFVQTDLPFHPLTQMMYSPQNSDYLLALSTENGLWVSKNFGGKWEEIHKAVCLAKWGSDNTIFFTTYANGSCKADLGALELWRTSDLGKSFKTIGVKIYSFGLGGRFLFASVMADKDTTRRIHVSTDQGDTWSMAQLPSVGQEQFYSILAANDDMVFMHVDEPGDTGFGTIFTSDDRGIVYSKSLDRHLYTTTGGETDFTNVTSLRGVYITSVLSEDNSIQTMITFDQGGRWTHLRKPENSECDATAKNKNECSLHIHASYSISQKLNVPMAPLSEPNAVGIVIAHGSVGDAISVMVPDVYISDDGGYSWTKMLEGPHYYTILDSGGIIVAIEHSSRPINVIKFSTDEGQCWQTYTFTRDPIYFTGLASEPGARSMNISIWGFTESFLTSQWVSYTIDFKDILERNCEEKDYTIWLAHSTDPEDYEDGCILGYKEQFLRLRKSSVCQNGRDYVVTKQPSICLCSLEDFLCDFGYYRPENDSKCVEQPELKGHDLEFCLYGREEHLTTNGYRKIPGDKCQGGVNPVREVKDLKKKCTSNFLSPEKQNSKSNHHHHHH", "assay": "HTRF, assay format #3: sortilin-d2 at 9 nM, SA-Tb at 0.33 nM; assay format #3: directly d2 conjugated sortilin, SA-Tb", "excerpt": "(§1) Assay #3 uses directly d2 conjugated sortilin and SA-Tb to detect the peptide. […] Assay #10 uses anti-sortilin 1C12 antibody to detect sortilin and SA-Tb to detect the peptide."}, "[2]": {"target": "T1, sortilin protein with a C-terminal …", "assay": "HTRF, assay format #10: sortilin at 9 nM, anti-sortilin 1C12 at 20 ng/well, SA-Tb at 0.33 nM; assay format #10: sortilin detected with anti-sortilin 1C12 antibody, SA-Tb", "excerpt": "as §1"}, "[3]": {"target": "T1, sortilin protein with a C-terminal …", "assay": "row HotKdNM of the drawn table: Kd of the labelled (biotinylated) peptide for sortilin, held constant in the Ki fit of assay format 10; same value in all three columns"}, "[4]": {"target": "T2, human sortilin expressed on cells (human, UniProt Q99523 78-831)", "T2 construct": "Transiently transfected HEK293T cells; also called Sortilin1; full-length Sortilin", "T2 sequence": "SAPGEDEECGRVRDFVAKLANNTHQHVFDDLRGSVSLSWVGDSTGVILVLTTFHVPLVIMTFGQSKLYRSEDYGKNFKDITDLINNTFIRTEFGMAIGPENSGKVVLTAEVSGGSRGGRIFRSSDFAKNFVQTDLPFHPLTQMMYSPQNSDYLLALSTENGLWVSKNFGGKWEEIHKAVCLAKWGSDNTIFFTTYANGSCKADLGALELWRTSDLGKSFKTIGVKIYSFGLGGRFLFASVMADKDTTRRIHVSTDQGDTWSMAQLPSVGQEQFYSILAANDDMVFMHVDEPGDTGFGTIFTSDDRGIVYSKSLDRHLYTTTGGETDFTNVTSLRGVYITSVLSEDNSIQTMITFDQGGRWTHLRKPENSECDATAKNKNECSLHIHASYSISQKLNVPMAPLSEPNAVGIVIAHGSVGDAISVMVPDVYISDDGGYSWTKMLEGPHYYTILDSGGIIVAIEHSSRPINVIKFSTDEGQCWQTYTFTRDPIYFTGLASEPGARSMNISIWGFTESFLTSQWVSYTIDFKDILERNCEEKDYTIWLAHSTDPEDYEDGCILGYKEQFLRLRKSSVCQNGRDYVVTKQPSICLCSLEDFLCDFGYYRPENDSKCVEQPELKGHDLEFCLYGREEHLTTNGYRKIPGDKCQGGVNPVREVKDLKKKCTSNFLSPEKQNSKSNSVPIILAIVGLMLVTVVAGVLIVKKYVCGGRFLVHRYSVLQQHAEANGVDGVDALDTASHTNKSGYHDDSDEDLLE", "assay": "flow cytometry on transiently transfected HEK293T cells, on ice, Streptavidin-APC, median fluorescence intensity", "description": "(§2) Cells were then washed and incubated with Streptavidin-APC and analyzed using Fluorescence Activated Cell Sorting (FACS). […] Cells were transiently transfected with human Sortilin or lacZ (control) and GFP using Fugene and harvested after 24 h. GFP was either expressed by a second vector (Topo3.3, Invitrogen) or located on the same vector, separated by an IRES sequence (pCMV6-AC-IRES-GFP, Origene). Full-length Sortilin was used either untagged (Topo3.3) or with a C-terminal myc tag (pCMV6-AC-IRES-GFP). […] After washing cells 3 times in HBSS+1% BSA, cells were incubated in Streptavidin-APC (BD Biosciences, 1:20) on ice for 30 min. Then cells were washed again, resuspended in HBSS+1% BSA and analyzed on a FACSCanto™ flow cytometer (BD Biosciences, Mississauga, ON)."}, "[5]": {"target": "T3, Sortilin (Homo sapiens, UniProt Q99523)", "T3 sequence (Q99523 78-831)": "T2 sequence", "assay": "Cell-based FACS assay: biotinylated PGRN binding to HEK293T cells expressing Sortilin", "parameters": "Full-length Sortilin was used either untagged (Topo3.3) or with a C-terminal myc tag (pCMV6-AC-IRES-GFP); myc (only in the pCMV6-AC-IRES-GFP construct); expressed in transfected cells; host or cells: HEK293T", "conditions": "on ice 2 h, Streptavidin-APC", "description": "HEK293T cells were transiently transfected with constructs for expressing Sortilin or LacZ (control) and incubated with biotinylated PGRN protein on ice for 2 h. Both human and mouse PGRN proteins were tested. Cells were then washed and incubated with Streptavidin-APC and analyzed using Fluorescence Activated Cell Sorting (FACS). For blocking assay, sortilin pro-domain peptide was used. Recombinant human PGRN (Adipogen) was biotinylated using a kit (EZ-link-Micro-NHS-PEG4 biotinylation kit, Thermo Scientific Pierce, #21955). Cells were transiently transfected with human Sortilin or lacZ (control) and GFP using Fugene and harvested after 24 h. GFP was either expressed by a second vector (Topo3.3, Invitrogen) or located on the same vector, separated by an IRES sequence (pCMV6-AC-IRES-GFP, Origene). Full-length Sortilin was used either untagged (Topo3.3) or with a C-terminal myc tag (pCMV6-AC-IRES-GFP). Human Progranulin was added in HBSS+1% BSA or PBS+1% BSA with or without Sortilin pro-peptide as a blocker, and incubated on ice for 2 h. […] Then cells were washed again, resuspended in HBSS+1% BSA and analyzed on a FACSCanto™ flow cytometer (BD Biosciences, Mississauga, ON). PGRN binding was measured as the median fluorescence intensity of APC on the GFP positive population."}, "[6]": {"target": "T2, human sortilin expressed on cells", "assay": "FACS, blocking of biotinylated PGRN binding to sortilin-expressing HEK293T cells", "description": "as §2"}, "[7]": {"target": "T2, human sortilin expressed on cells", "assay": "FACS, blocking of PGRN-DyLight650 binding and endocytosis on sortilin-expressing cells"}},
  "note": "No end group written: not given here. *: point of attachment. Biotin = O=C1N[C@H]2[C@H](CS[C@H]2CCCCC(=O)*)N1",
  "data": [
    {"molecule": "B1", "values": [
      {"measurement": "Kd", "setting": "[1]", "value": 2, "unit": "nM"},
      {"measurement": "Kd", "setting": "[2]", "value": 1.6, "unit": "nM"},
      {"measurement": "Kd", "setting": "[3]", "value": 1.4, "unit": "nM"}
    ]},
    {"molecule": "B2", "values": [
      {"measurement": "binding result", "setting": "[4]", "value": "binds"}
    ]},
    {"molecule": "B3", "values": [
      {"measurement": "binding of PGRN to sortilin-expressing, but not control (LacZ), HEK293T cells", "setting": "[5]", "value": "strong and specific binding"}
    ]},
    {"molecule": "B4", "values": [
      {"measurement": "IC50", "setting": "[6]", "value": "~5900", "unit": "nM"},
      {"measurement": "IC50", "setting": "[7]", "value": 450, "unit": "nM"}
    ]},
    {"molecule": "B5", "values": [
      {"measurement": "IC50", "setting": "[7]", "value": 35, "unit": "nM"}
    ]}
  ]
}
